{
  "source": "patent US7429481",
  "key": {"[1]": {"molecular_target": "human Her2/neu receptor (human) (UniProt P04626)"}, "[2]": {"molecular_target": "human Her2/neu receptor (human) (UniProt P04626)", "assay": "flow cytometry, SKBR3 cells stained with Herceptin"}},
  "note": "Read-outs that look alike come from different tables or passages of the source.",
  "data": [
    {"substance": "Herceptin, the humanized form of 4D5 (antibody)", "values": [
      {"measurement": "mean fluorescence", "setting": "[1]", "value": 186},
      {"measurement": "mean fluorescence", "setting": "[2]", "value": 401}
    ]}
  ]
}
